Source: article PMC4830570, “CD36 Differently Regulates Macrophage Responses to Smooth and Rough Lipopolysaccharide” (PLoS ONE, 2016)

Key:
[1] = biological target: T1, CD36 on the surface of mouse peritoneal exudate macrophages (mouse (endogenous in peritoneal exudate …, UniProt Q08857 1-472)); assay: cellular ELISA; rCD14 with 1 μg/ml S-LPS on adherent PEMs, incubation on ice (0°C); bound rCD14 detected with HRP-anti-Fc; conditions: one partner purified
T1 construct: CD36, mouse, endogenous on the surface of peritoneal exudate macrophages; also called CD36 on PEMs; endogenous CD36; source: endogenous, on adherent thioglycollate-elicited peritoneal exudate macrophages of C57BL/6 mice
T1 sequence (Q08857 whole entry): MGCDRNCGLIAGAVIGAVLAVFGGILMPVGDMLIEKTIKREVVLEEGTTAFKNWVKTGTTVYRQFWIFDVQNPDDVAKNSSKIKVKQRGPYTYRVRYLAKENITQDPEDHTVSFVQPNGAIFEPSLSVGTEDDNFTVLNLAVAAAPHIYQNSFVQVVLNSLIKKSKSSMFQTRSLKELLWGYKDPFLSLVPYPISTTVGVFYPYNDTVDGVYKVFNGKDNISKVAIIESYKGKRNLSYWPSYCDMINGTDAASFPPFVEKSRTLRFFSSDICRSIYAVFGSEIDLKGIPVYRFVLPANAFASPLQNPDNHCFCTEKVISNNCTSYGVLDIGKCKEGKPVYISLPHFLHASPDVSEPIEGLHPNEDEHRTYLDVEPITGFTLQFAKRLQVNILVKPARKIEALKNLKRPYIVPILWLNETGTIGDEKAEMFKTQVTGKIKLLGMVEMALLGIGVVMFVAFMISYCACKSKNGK

[2] = biological target: T1, CD36 on the surface of mouse peritoneal …; assay: cellular ELISA; 5 μg/ml rCD14 with 1 μg/ml S-LPS on adherent PEMs, 50 min at 37°C in FCS-RPMI; bound rCD14 detected with HRP-anti-Fc; conditions: one partner purified

B1: recombinant mouse CD14 tagged with the Fc fragment of human IgG1 (Fc fusion, UniProt P10810 16-336, looked up)
chain: SPAPPEPCELDEESCSCNFSDPKPDWSSAFNCLGAADVELYGGGRSLEYLLKRVDTEADLGQFTDIIKSLSLKRLTVRAARIPSRILFGALRVLGISGLQELTLENLEVTGTAPPPLLEATGPDLNILNLRNVSWATRDAWLAELQQWLKPGLKVLSIAQAHSLNFSCEQVRVFPALSTLDLSDNPELGERGLISALCPLKFPTLQVLALRNAGMETPSGVCSALAAARVQLQGLDLSHNSLRDAAGAPSCDWPSQLNSLNLSFTGLKQVPKGLPAKLSVLDLSYNRLDRNPSPDELPQVGNLSLKGNPFLDSESHSEKFN
notes: CD14, mouse, recombinant soluble receptor from R&D Systems; also called rCD14; source: bought: R&D Systems
fold higher binding on ice than at 37°C [1]: ~2 fold | fold increase of binding with S-LPS over binding without LPS [2]: > 25 fold
